Test results published in PMC5550006.

Biological target: recombinant IPSE/alpha-1 expressed in tobacco plants (N-terminally tagged H6F-IPSE) (Schistosoma mansoni)
Assay: SDS-PAGE under reducing and non-reducing conditions; purified IPSE on a 12% Bis-Tris gel, with and without DTT, Coomassie brilliant blue staining

## recombinant IPSE/alpha-1 expressed in tobacco plants (N-terminally tagged H6F-IPSE) (natural protein)
  stoichiometry N: 2
